# Experimental data: the DeepSol protein solubility set
# Assay: soluble on expression in E. coli; label from the status in PepcDB or PDB records
row,Sequence,soluble on expression in E. coli
1,MMKFDWNNPYPSTRIPVFARNVVATSHPLAAQAGLRILALGGNAADAAVASAATLALVEPASNGLGSDCFALVWDGARLHGLNASGTAPAAWSPGYFQRKHQGAIPLRGWDSVTIPGCVAGWASLHDKLGSLPFADVLAPAIEYAERGFAVPPTVQRRWADQVDPLRSLPGFAEHFLPHGRAPEVGEHFVLAGAAATLRRIAASGGRDFYEGETAQKLVAHAQAHEAALTLGDLRDYAPQWVEPISQAYRGHALHQLPPNGQGLAALIALGIVEHFDLASRPAEHPDTQHILIEAMKLAFADVHAHVADAAHIRIRVEQLLDPAYLAERARLIDLRRARVYNAAQAPQGGTVYLACADRNGMMVSFTQSNYMGFGSGIVVPGTGISLQNRGCCFSMDPDHPNVVGGGKRPFHTGIPAFLTQDGAPLMSFGIMGGNMQPQGHLQALVRMLDYRQQPQAACDAPRWKWNRGLSVDIEAAMPAQVTDALRARGHIVEVAAPADKDFGSGQFIWRLGDPAVDGYVAASDSRRDGLAAGFLEHHHHHH,not soluble
2,MGSDKIHHHHHHMYRAVIFDFDGTIIDTEQHLFNVINKHLEMHNADPISIDFYRSSIGGAATDLHDHLIKAIGSENKDKLYEEHHLTSTTLPMIDTIKSLMAFLKQRHIPMAIATSSVKAEIMPTFKALGLDDYIEVVVGREDVEQVKPDPELYLSAVQQLNYMPTQCLAIEDSVNGATAAIAAGLDVIVNTNKMTSAQDFSNVDYVAKDIDYDQIVARFFTK,not soluble
3,MGSDKIHHHHHHMTITESRNAAVAEIEEVIGDWAEALRRKDAARVLAHGTEDCLVFSLAPPLKASDADAGGLEQWFSTWKGPLGFTLEELDVSVSGDVAFATALTHLSGEKHDGQKAALWYRLTLGLTRTDRGWKIAHQHESVPFYMDGSFKAAIDLDPRSEVDWQAPSRPPMPGVIAYLNVEDADAAAAFYVRAFGAKEEDRKHAQDGKRLIHCHLTINGGALMLNDPFPEFGHPWKPPEGFVLHLVVDDADFWWNRAVEAGAEVTMPLEIAFWGDHYGQLRDPFGVTWGIVAPVKEGG,not soluble
4,MGSDKIHHHHHHGNSKSRNDRTETVDKEVIKAPEFDADSAYQYIQVQADFGPRVPNTQAHKECGEYLAGQLEKFGAKVYNQYADLIAYDGTILKSRNIIGAYKPESKKRILLCAHWDSRPYADNDPDPKNHHTPILGVNDGASGVGVLLEIARQIQKEQPALGIDIVFFDSEDYGIPEFYDGKYKQDTWCLGSQYWARTPHVQNYNARYGILLDMVGGKDATFYYEGYSARTARSEMKKIWKKAHELGYGKYFVKEDGGETVDDHIYVNKLARIPCVDIINYDAGNPQSSFGSFWHTVNDTMENIDRNTLKAVGQTVMDVIYNEK,not soluble
5,MNKFLFAAALIVSGLLVGCNQLTQYTITEQEINQSLAKHNNFSKDIGLPGVADAHIVLTNLTSQIGREEPNKVTLTGDANLDMNSLFGSQKATMKLKLKALPVFDKEKGAIFLKEMEVVDATVQPEKMQTVMQTLLPYLNQALRNYFNQQPAYVLREDGSQGEAMAKKLAKGIEVKPGEIVIPFTD,not soluble
6,MATTKPYRVLLYYMYTTIENPEEFAAEHLEFCNSLELKGRILVAKEGINGTCSGTVEQTEKYMEAMNNDPRFDGIVFKIDEADGHAFKKMHVRPRPELVTLRLEDDINPHEITGKYLEPKDFYEAMKQEDTVIIDARNDYEFDLGHFKGAIKPDIESFRELPDWIRENKEVLEGKKILTYCTGGIRCEKFSGWLVREGYEDVSQLHGGIVTYGKDPEVQGELWDGQCYVFDERIAVPVNQKEHVIVGKDHFTGEPCERYVNCSNPECNKKILCSEENEAKYLRACSHECRVSPRNRYVIQHELTEEQVAAALEQIEAGKLEHHHHHH,soluble
7,MGHHHHHHSHMEMASADSDEDPRHKVGKTPHLTLPADLQTLHLNRPTLSPESKLEWNNDIPEVNHLNSEHWRKTEKWTGHEETNHLETDFSGDGMTELELGPSPRLQPIRRHPKELPQYGGPGKDIFEDQLYLPVHSDGISVHQMFTMATAEHRSNSSIAGKMLTKVEKNHEKEKSQHLEGSASSSLSSD,not soluble
8,MGKGDPNKPRGKMSSYAFFVQTCREEHKKKHPDSSVNFAEFSKKCSERWKTMSAKEKSKFEDLAKSDKARYDREMKNYVPPKGDKKGKKKDPNAPKRPPSAFFLFCSEHRPKIKSEHPGLSIGDTAKKLGEMWSEQSAKDKQPYEQKAAKLKEKYEKDIAAYRAKGKSEVGKKGPGRPTGSKKKNEPEDEEEEEEEEDDEDEEEEDEDEE,soluble
9,MSLVWLAELPDEILENLYPGEDVLYSVKKKLYTELKPKYLIVTDRRIIYLDQKILGRYDLIDIPYEKLEFVHFKKGKIGAKFIIRNEEGEEIVLTWMEKDEAEKAIEAIRDAINAIAVEPVSIQKRKGILGFELELSKPKEFITRTYPQAVAKAAPKEDPIERIRKLKELYESGVISREEFEEKKRKLLDQIEGHHHHHH,soluble
10,MNPTFLEFIGANQRSSCGYCKNDRGERTPARSAKSGAWAHSMTVNDYSGLLDVGWRRSGRYLYKPDNRVTCCPQYTIRLDVTKFKMSRSQKRAMRQMNEFLATGKRPVCGIKEEDAPVEMNLKGSGSQSEQSKKNLKSHEVSTKKMKDADRPVLTKKEIRNKKFEEKCRQKNLDPDVVRTERRQKDAARQRTIQSYIDEARPDWKHKLEVKLVSLGGDEFGTRDNESFELYKNYQHTIHKDEDCRLAGFRRFLCDSPLKKEQRGGIELGSFHLWFLLDDKLIAVCVVDILPKCFSAKYMYYNPEYSFLSLGTYTALREIEQTQRLHAIYSNLKYYYMGYYIHSCPKMRYKAKFRPSDLLCDQSFRWVDFNSCRDLLDGSTCSNGFSEFCPGAPRPASPVVDTLLVFSNGSITTLSDALTEIPEAAENEQFLANVRDLAHLVGPDLSRVVYYFNELNS,not soluble
11,MERPRFSNYYAVRVTGGQEINVALMIEERIKTNNIKEVYSIIVPPNVKGYVILEATGPHVVKLVSQGIRHVRGFAQGLVQKDDIIKFISKTTIAPAYKVGDMVEVTSGPFRGMQAQVVRIDSAKNEVVLNILESSFPLQVTVPIDQVKPVKK,soluble
12,IRRNETTEADKQIPHYEREIIYQVLYDMKKEIADLKGMMNRLAHHEQPSWPVGSDVWGNDDKRTADPKWGVSTHKAPIANAAEPVEPIQEASEYTEDPVSLEEVEKKMISLALERHGGRRKQTAEELKISERTLYRKIKEYGLE,not soluble
13,MGKDSKKHKKERRRERSPSTSDSDEERLQKRLAEQRSLKKDEKRRQKEEMKKNESAEEKRARRMEKKMRKDAKRKDADAEDTLIPPELNYTNLNNPFNDTKLTQTFVWGKKLEREGKSGLTQDEITKQTSQRIRKNLHEAAEFKRIRDSRAAAKEDMEMMKRDADLRAGQISDTKEREFQMDQIKERTRIRIDQGRAKAIDLLSRYARFADENPHTAKIPDFELENPMEYLKASCKSVDDYEDLIEDIKTYREVDGWAKNETWWMDVTRIAEDEIQKKAAQNRGDVHASVQTEVQNMFKNKSIDELLKLEDQMDAKIRGNSGNKGYWQDLDDQLKVFIARKRLREHHGRVLRLQLAIIKEEQKKEIQQQESEELLPVAEVPPQVKIQKEEEEEEEEDEDDEKISKKVRRKIDVQTLDDPELDEPERERKWRALTGDQLDDVTRELYRIGCYRFSIFFLAEKPPTYISADDTMPGIEILDEQADVDNLTERRNRNRGTLPSSSAASSGAPQGASSKMMAIAREGMEADESIFGAEEQLAAQRHLWSDKYRPRKPTYLNRVQTGFDWNKYNQTHYDQDNPPPKIVQGYKFNIFYPDLLDMTVAPRFGLTSCEDPDFAIIRFKAGPPYEDIAFKVVNREWETLHKNGYKCQFQNGVFQLWFMFKKYRYRR,soluble
14,MMKRALTGIQASGKQHLGNYLGVMQSLIELQEQCQLFVFVADLHSITVDFQPQALKQNNFDLVRTLLAVGLDPQKACLFLQSDLLEHSMMGYLMMVQSNLGELQRMTQFKAKKAEQTRNPNGTLNIPTGLLTYPALMAGDILLYQPDIVPVGNDQKQHLELTRDLAQRIQKKFKLKLRLPQFVQNKDTNRIMDLFDPTKKMSKSSKNQNGVIYLDDPKEVVVKKIRQATTDSFNKIRFAPKTQPGVTNMLTILKALLKEPVNQSLTNQLGNDLEAYFSTKSYLDLKNALTEATVNLLVNIQRKREQISREQVFNCLQAGKNQAQATARTTLALFYDGFGLGSQNIK,soluble
15,MGSSHHHHHHSSGLVPRGSHMAAMMSLNDFLSSVLPVSEQFEYLSLQSIPLETHAVVTPNKDDKRVPKSTIKTQHFFSLFHQGKVFFSLEVYVYVTLWDEADAERLIFVSKADTNGYCNTRVSVRDITKIILEFILSIDPNYYLQKVKPAIRSYKKISPELISAASTPARTLRILARRLKQSGSTVLKEIESPRFQQDLYLSFTCPREILTKICLFTRPASQYLFPDSSKNSKKHILNGEELMKWWGFILDRLLIECFQNDTQAKLRIPGEDPARVRSYLRGMKYPLWQVGDIFTSKENSLAVYNIPLFPDDPKARFIHQLAEEDRLLKVSLSSFWIELQERQEFKLSVTSSVMGISGYSLATPSLFPSSADVIVPKSRKQFRAIKKYITGEEYDTEEGAIEAFTNIRDFLLLRMATNLQSLTGKREHRERNQPVPASNINTLAITMLKPRKKAKALPKT,soluble
16,MVMRGNKMRGDKKIFKKRVERFQELLKENNIDGAVIRTLSSFIYFTGTKWLRPSLLIPAEGEPRVLVVKGEAELFKERSWIEDVVEYQKAEELMLTVVKWIRENEMKRVGLEFGIERDAYLIFYKIFLRLNPTVEVVDILDLTMKLRMIKDEWELDNIRKAGKIALKGMRVAEEEIKPGRTELEIAAEVTRELMLNGSEDPKVYVSVTPRAHAEPFRDLKVPENGVVTVVIGTDWNHYYANMARTFIIGDPGERVKKAIEVKKEAIKLALEETKVGVPISTVEKKIEQFFKERGFGDYHLSGYTHGVGLLIEEPPIATIVVPQRAAKIQENMVLSIIHPPLMLPEGAIKYENTYIVKKDGLERVT,soluble
17,MSLSVSLVYRKARPDDWKGILELYNSLSDDDLYLRFFTFHKLTEEEARKIADTKEHYTVIAEINGKIVGEASIYFDGEFAVVVHPDYRRLGIGTELVKRLIEFAKKNGIKKVRFYTLPENYPMIKIGKKLGFKIIEREDEVYAYLDLTNENVILEKT,soluble
18,MIEVDGYFYHNAGAENKNTFVNDRWKMNDAAVRGYLVLRYPASSVFEELDTIVGQVIFATRVVREELVVVDSTRRWHRGPWEWLPLDSW,not soluble
19,MGRGIAQIIRHDEPTDEIVDKFYRQINNPVLANINLQWEGDGDSPIIYPCNPPDLFAEQPLVLFGKKPDARGGKLHITGIVAGGTHYQHTFDLNFEETGNPAIAQLWGRYRIKELMNLMVSGETKLGVEAVTDTALTYQMLSQYTAFVAVSDDVRVDSLQETVSVQVPVEMAEGISYLGIFGSAVSAAAPIMANMVLEHHHHHH,not soluble
20,MVERMERTMPTTAVRDATSSRRFQPGQAVVGRVERVEEMETEERAALVRAGGQLVRARLEAPLAVGRLYLFEIHERQGTIYWKAIPLSEPASAPSGEEAVRGWQKAWKLPDAALPVLRQALKAGAAATKEEIAALTEAVKETGQPDAAEDVLAHLFRRRLPFSSAVFRALWAAKTGVPLAEGLGKLKAAIAALSAHPAALKLIRAMEKFLSPPLSAYEAAVRLLLSGEEEAETARALLARLGLAPLPEDRRLALREAVQCRRFADIIRQLGLTDEEAFLERWAALDAAYQSGALPAAEAKLWAAARATRDPALSLFCWLRRAAVRLGLEDEAALVRVGKIEDLPSAPSLKRLLLRFLHESGSEGAKRAAEAILDQLDGMAIAAGGDGLIEHVWISFPLPLGGRSSDFAVCWQGRRKQGGPLDADYNRIVCCLTLEELGEVIVDMRVQRRIVHISIFHDDPRLAVAAARMAPLVKERFQAHGYALSGIDVKATRSAPPPPSVFLFADSCSEVDCQA,not soluble
